Values belong to the substance of their own block, whether it stands above or below them.
Tests used:
[1] = biological target: Purified HNA-5a protein (CD11a) (human) (UniProt P20701); assay: Luminex bead assay, protein on microbeads; ratio to negative mouse IgG; 6 tests
[2] = biological target: Purified HNA-4a protein (CD11b) (human) (UniProt P11215); assay: as above
[3] = biological target: Purified HNA-5a protein (CD11a) (human) (UniProt P20701); assay: Luminex bead assay, protein on microbeads; reference, 1 by definition
[4] = biological target: Purified HNA-4a protein (CD11b) (human) (UniProt P11215); assay: as above
[5] = biological target: HNA-1c K138T modified protein (human) (UniProt O75015); assay: Luminex bead assay, protein on microbeads, negative serum, PE goat anti-human IgG; non-specific IgG background
[6] = biological target: HNA-1c L136A modified protein (human) (UniProt O75015); assay: as above
[7] = biological target: HNA-1c W131F modified protein (human) (UniProt O75015); assay: as above
[8] = biological target: HNA-1b K138T modified protein (human) (UniProt O75015); assay: as above
[9] = biological target: wild type HNA-1c protein (Fc gamma receptor type IIIb, FcγRIIIb, CD16b) (human) (UniProt O75015); assay: as above
[10] = biological target: HNA-1b W131F modified protein (human) (UniProt O75015); assay: as above
[11] = biological target: wild type HNA-1b protein (Fc gamma receptor type IIIb, FcγRIIIb, CD16b) (human) (UniProt O75015); assay: as above
[12] = biological target: HNA-1b L136A modified protein (human) (UniProt O75015); assay: as above
[13] = biological target: Purified HNA-3a protein (CTL2) (human) (UniProt Q8IWA5); assay: Luminex bead assay, protein on microbeads, PE goat anti-human IgG; reference, 1 by definition
[14] = biological target: Purified HNA-2 protein (CD177) (human) (UniProt Q8N6Q3); assay: as above
[15] = biological target: HNA-1c K138T modified protein (human) (UniProt O75015); assay: as above
[16] = biological target: HNA-1a L136A modified protein (human) (UniProt O75015); assay: as above
[17] = biological target: HNA-1c L136A modified protein (human) (UniProt O75015); assay: as above
[18] = biological target: HNA-1a W131F modified protein (human) (UniProt O75015); assay: as above
[19] = biological target: HNA-1c W131F modified protein (human) (UniProt O75015); assay: as above
[20] = biological target: HNA-1a K138T modified protein (human) (UniProt O75015); assay: as above
[21] = biological target: HNA-1b K138T modified protein (human) (UniProt O75015); assay: as above
[22] = biological target: wild type HNA-1c protein (Fc gamma receptor type IIIb, FcγRIIIb, CD16b) (human) (UniProt O75015); assay: as above
[23] = biological target: HNA-1b W131F modified protein (human) (UniProt O75015); assay: as above
[24] = biological target: wild type HNA-1b protein (Fc gamma receptor type IIIb, FcγRIIIb, CD16b) (human) (UniProt O75015); assay: as above
[25] = biological target: HNA-1b L136A modified protein (human) (UniProt O75015); assay: as above
[26] = biological target: wild type HNA-1a protein (Fc gamma receptor type IIIb, FcγRIIIb, CD16b) (human) (UniProt O75015); assay: as above
[27] = biological target: HNA-1a L136A modified protein (human) (UniProt O75015); assay: Luminex bead assay, protein on microbeads, neat negative serum, PE goat anti-human IgG; non-specific IgG background
[28] = biological target: HNA-1a W131F modified protein (human) (UniProt O75015); assay: as above
[29] = biological target: HNA-1a K138T modified protein (human) (UniProt O75015); assay: as above
[30] = biological target: wild type HNA-1a protein (Fc gamma receptor type IIIb, FcγRIIIb, CD16b) (human) (UniProt O75015); assay: as above

Chain of UniProt P20701 (P20701 26-1170 limits assumed): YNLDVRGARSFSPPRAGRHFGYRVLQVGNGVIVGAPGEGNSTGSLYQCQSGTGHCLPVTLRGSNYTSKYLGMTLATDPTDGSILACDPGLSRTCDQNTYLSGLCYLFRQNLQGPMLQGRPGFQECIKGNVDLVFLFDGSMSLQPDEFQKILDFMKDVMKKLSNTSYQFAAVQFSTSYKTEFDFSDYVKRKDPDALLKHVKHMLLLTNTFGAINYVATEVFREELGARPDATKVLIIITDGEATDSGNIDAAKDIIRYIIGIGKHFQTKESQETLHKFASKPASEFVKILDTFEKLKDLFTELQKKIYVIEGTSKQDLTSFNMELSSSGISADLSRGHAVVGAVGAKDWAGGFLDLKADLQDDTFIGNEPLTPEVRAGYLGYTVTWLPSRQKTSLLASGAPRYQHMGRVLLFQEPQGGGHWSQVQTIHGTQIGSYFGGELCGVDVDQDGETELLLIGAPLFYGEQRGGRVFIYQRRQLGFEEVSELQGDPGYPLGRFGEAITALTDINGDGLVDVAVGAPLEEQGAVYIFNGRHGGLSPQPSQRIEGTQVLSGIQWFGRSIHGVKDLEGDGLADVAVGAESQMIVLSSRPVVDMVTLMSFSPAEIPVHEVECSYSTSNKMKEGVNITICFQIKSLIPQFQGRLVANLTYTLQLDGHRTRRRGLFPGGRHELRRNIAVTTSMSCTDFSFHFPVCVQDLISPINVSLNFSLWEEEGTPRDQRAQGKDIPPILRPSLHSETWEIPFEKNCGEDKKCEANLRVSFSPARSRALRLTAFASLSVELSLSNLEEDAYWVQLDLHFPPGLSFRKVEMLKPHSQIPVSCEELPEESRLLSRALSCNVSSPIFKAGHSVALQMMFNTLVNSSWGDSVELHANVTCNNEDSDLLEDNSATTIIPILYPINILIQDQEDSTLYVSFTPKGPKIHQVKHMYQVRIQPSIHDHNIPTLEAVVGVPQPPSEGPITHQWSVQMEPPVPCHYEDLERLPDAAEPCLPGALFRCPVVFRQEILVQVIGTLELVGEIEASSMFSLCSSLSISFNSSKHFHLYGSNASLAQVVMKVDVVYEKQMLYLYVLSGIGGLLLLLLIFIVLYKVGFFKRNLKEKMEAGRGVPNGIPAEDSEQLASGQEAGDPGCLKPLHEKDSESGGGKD
Chain of UniProt Q8IWA5 (Q8IWA5 whole entry): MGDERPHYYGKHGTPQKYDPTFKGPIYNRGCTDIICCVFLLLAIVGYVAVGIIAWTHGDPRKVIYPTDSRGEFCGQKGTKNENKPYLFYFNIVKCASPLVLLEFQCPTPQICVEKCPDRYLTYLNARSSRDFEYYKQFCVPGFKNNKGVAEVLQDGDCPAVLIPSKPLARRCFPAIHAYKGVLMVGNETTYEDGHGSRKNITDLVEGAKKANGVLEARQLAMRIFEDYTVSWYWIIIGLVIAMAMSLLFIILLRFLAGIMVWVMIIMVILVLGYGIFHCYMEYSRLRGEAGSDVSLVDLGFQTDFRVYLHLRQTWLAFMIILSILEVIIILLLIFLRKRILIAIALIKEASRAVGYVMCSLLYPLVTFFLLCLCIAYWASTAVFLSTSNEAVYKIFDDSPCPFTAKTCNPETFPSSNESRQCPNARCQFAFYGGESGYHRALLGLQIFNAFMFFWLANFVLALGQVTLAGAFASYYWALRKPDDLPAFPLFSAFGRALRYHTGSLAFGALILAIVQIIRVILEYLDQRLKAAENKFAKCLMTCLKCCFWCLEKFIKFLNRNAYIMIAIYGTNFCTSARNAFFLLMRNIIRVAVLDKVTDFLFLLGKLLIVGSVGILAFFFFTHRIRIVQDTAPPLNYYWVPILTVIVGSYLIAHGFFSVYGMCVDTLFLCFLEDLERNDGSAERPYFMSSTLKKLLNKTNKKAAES
Chain of UniProt Q8N6Q3 (Q8N6Q3 22-408 limits assumed): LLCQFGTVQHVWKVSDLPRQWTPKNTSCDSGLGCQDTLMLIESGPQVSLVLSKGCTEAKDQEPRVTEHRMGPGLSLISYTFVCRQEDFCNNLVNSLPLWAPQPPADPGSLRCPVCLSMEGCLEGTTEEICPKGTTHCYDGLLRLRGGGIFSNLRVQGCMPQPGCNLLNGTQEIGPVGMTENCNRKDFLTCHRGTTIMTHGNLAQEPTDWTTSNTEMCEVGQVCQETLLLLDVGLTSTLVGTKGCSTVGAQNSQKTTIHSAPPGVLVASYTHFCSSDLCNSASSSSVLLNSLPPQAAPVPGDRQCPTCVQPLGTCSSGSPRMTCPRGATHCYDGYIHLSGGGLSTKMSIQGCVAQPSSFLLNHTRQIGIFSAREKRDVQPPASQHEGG

detection ratio [1]: 5 fold
detection ratio [2]: 543 fold
Substance: Positive mouse IgG (#TS1/18) (antibody)

detection ratio [1]: 3 fold
detection ratio [2]: 594 fold
Substance: Positive mouse IgG (#ICRF44) (antibody)

detection ratio [3]: 1 fold
detection ratio [4]: 1 fold
Substance: Negative mouse IgG (antibody)

Background Value (MFI) [5]: 126 MFI
Background Value (MFI) [6]: 209 MFI
Background Value (MFI) [7]: 181 MFI
Background Value (MFI) [8]: 187 MFI
Background Value (MFI) [9]: 1500 MFI
Background Value (MFI) [10]: 183 MFI
Background Value (MFI) [11]: 1970 MFI
Background Value (MFI) [12]: 277 MFI
detection ratio [13]: 1 fold
detection ratio [14]: 1 fold
Fold Increased Ratio Against Negative Sera [15]: 1 fold
Fold Increased Ratio Against Negative Sera [16]: 1 fold
Fold Increased Ratio Against Negative Sera [17]: 1 fold
Fold Increased Ratio Against Negative Sera [18]: 1 fold
Fold Increased Ratio Against Negative Sera [19]: 1 fold
Fold Increased Ratio Against Negative Sera [20]: 1 fold
Fold Increased Ratio Against Negative Sera [21]: 1 fold
Fold Increased Ratio Against Negative Sera [22]: 1 fold
Fold Increased Ratio Against Negative Sera [23]: 1 fold
Fold Increased Ratio Against Negative Sera [24]: 1 fold
Fold Increased Ratio Against Negative Sera [25]: 1 fold
Fold Increased Ratio Against Negative Sera [26]: 1 fold
Background Value (MFI) [27]: 290 MFI
Background Value (MFI) [28]: 417 MFI
Background Value (MFI) [29]: 450 MFI
Background Value (MFI) [30]: 1910 MFI
Substance: Negative Sera (#LSNC) (antibody)
